These results are taken from paper PMC10470895.

For assay [1], the target named is Pyruvate kinase M2 (PKM2) of the X. laevis oocyte nucleus (X. laevis (endogenous in oocytes)). The experiment in a line: native gel or EMSA; oocyte nuclear homogenate, native PAGE as in Sen et al. (2016), 2x loading buffer with 200 mM KCl, Western blotting with anti-PKM2; Precision Plus markers. Background: Mobility shift assays separate free from complexed probe on a gel.

In assay [2] the target is X. laevis oocyte GAPDH (glyceraldehyde 3-phosphate dehydrogenase, somatic form; GAPDH.s and GAPDH.l) (X. laevis (endogenous in oocytes)) (UniProt P51469). The experiment in a line: native gel or EMSA; oocyte nuclear (up to 0.5 nuclei) and cytoplasmic (0.05 cytoplasm) homogenates in HR buffer on Invitrogen 4-16% NativePAGE Bis-Tris gel, Western blotting; compared with the bands of recombinant human GAPDH; second-dimension SDS-PAGE for cytoplasm.

Assay [3] addresses recombinant human GAPDH (glyceraldehyde 3-phosphate dehydrogenase) (human) (UniProt P04406). The experiment in a line: native gel or EMSA; purified recombinant human GAPDH (1 ug) on Invitrogen 4-16% NativePAGE Bis-Tris gel, Western blotting; bands confirmed as GAPDH by second-dimension SDS-PAGE (about 36 kDa).

As a reminder, the stoichiometry N is a count of units in the complex or per binding partner.

Values joined by “and” are separate entries in the source; they are usually repeats but may differ in a detail not shown here. Equal values may be shown once.

recombinant human GAPDH (glyceraldehyde 3-phosphate dehydrogenase), P04406 1-335 (enzyme; other documents disagree on this pair), sequence (P04406 whole entry): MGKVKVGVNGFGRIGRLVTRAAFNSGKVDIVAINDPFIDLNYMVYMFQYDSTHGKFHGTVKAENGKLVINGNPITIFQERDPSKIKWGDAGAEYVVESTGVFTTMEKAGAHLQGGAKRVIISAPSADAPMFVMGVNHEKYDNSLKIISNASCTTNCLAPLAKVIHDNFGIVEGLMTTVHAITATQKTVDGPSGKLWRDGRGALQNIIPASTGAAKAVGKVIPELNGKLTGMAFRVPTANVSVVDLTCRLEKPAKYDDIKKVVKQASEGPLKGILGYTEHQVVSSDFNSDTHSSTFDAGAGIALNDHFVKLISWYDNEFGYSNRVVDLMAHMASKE
X. laevis oocyte GAPDH (glyceraldehyde 3-phosphate dehydrogenase, somatic form; GAPDH.s and GAPDH.l), sequence (P51469 whole entry): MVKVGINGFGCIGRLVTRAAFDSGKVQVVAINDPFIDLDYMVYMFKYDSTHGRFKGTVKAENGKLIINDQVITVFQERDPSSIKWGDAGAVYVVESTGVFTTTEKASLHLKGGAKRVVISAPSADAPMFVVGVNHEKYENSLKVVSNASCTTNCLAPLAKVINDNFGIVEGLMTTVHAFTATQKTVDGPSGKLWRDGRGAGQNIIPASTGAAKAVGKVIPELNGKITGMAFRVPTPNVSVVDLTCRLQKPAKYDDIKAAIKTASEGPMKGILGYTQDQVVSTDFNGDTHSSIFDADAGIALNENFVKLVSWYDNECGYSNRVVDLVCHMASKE

On to “Pyruvate kinase M2 (PKM2) of the X. laevis oocyte nucleus (enzyme)”, for which the stoichiometry N in assay [1] came out at 4.
With “X. laevis oocyte GAPDH (glyceraldehyde 3-phosphate dehydrogenase, somatic form; GAPDH.s and GAPDH.l) (from UniProt P51469 1-333) (enzyme)”, the stoichiometry N in assay [2] was 4.
With “recombinant human GAPDH (glyceraldehyde 3-phosphate dehydrogenase), P04406 1-335 (enzyme; other documents disagree on this pair)”, the stoichiometry N in assay [3] is 2 and 4.
